# Source: patent publication US20250011363A1, “OPTIMIZED SHORTENED PEPTIDE THAT BINDS TO ACETYLCHOLINE RECEPTOR, AND USE THEREOF” (SKINMED CO., LTD., priority 2021, published 2025)
# Biological target: acetylcholine receptor (Homo sapiens, UniProt P02708)
# Assay: SPR binding affinity (RU) of optimized 5mer/6mer/7mer peptides, Examples 6-7
# Details: 6mer-1 Top sequence; SPR; peptides tested at 10 μM
# Outline: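 Using surface plasmon resonance, binding to the acetylcholine receptor was measured for each sequence at a single 10 μM concentration. Values are response units.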
# Sequence of acetylcholine receptor (P02708 21-457): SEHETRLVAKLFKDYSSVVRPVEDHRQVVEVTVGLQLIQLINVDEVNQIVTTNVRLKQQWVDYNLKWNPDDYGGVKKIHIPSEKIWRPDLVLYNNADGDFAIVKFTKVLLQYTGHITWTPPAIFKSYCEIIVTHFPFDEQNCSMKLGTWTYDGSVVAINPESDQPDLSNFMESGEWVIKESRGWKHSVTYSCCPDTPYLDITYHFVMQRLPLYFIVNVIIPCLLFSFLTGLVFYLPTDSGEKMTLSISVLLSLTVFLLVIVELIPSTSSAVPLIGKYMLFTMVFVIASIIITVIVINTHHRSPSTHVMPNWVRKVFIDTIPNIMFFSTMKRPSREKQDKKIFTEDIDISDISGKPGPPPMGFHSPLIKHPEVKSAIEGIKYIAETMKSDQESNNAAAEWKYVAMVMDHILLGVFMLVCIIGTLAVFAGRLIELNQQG
row,Substance,Binding affinity
1,6mer-1-256 (KRVRTK),125 Ru
2,6mer-1-257 (RKWVTR),124 Ru
3,6mer-1-258 (KKLQYK),137 Ru
4,6mer-1-259 (KRRYRK),141 Ru
5,6mer-1-260 (RKQRTK),141 Ru
6,6mer-1-261 (KRWVTR),121 Ru
7,6mer-1-262 (RKQLQR),139 Ru
8,6mer-1-263 (RKSYTK),146 Ru
9,6mer-1-264 (RRQYQR),128 Ru
10,6mer-1-265 (RKSVCR),145 Ru
11,6mer-1-266 (KKGRLK),144 Ru
12,6mer-1-267 (KRRLLR),139 Ru
13,6mer-1-268 (KRRQSK),144 Ru
14,6mer-1-269 (RKRRQR),142 Ru
15,6mer-1-270 (KRGLRR),149 Ru
16,6mer-1-271 (RRQVSK),122 Ru
17,6mer-1-272 (KKQVSR),139 Ru
18,6mer-1-273 (KKQVSK),137 Ru
19,6mer-1-275 (RKRVLK),123 Ru
20,6mer-1-276 (RRVICK),128 Ru
21,6mer-1-277 (KKGLCR),141 Ru
22,6mer-1-278 (KRQQTR),142 Ru
23,6mer-1-279 (RRLRYR),145 Ru
24,6mer-1-280 (RKLQCK),149 Ru
25,6mer-1-281 (KRLLCR),154 Ru

row,Substance,Binding affinity
1,6mer-1-282 (RRRRYR),121 Ru
2,6mer-1-283 (KKWVQK),133 Ru
3,6mer-1-284 (KRSRQK),145 Ru
4,6mer-1-285 (KRWVQR),122 Ru
5,6mer-1-286 (RKLISK),139 Ru
6,6mer-1-287 (RKWLTR),136 Ru
7,6mer-1-288 (KKVQQR),148 Ru
8,6mer-1-289 (RKRYYR),153 Ru
9,6mer-1-290 (RKQLTK),146 Ru
10,6mer-1-291 (KKQIRK),142 Ru
11,6mer-1-292 (RKWQTK),122 Ru
12,6mer-1-293 (RKRVCK),154 Ru
13,6mer-1-294 (KKLYRR),123 Ru
14,6mer-1-295 (KRQRCR),148 Ru
15,6mer-1-296 (RKSIRR),121 Ru
16,6mer-1-297 (RRGFSK),139 Ru
17,6mer-1-298 (KKLYCK),147 Ru
18,6mer-1-299 (KRWLSK),139 Ru
19,6mer-1-300 (RRWQQK),148 Ru
20,6mer-1-301 (RRSILR),154 Ru
21,6mer-1-302 (RRGQSR),151 Ru
22,6mer-1-303 (RKQYCK),123 Ru
23,6mer-1-304 (RKLYSR),121 Ru
24,6mer-1-305 (RKWISR),153 Ru
25,6mer-1-306 (KKLFYR),135 Ru

row,Substance,Binding affinity
1,6mer-1-307 (KRWYRR),153 Ru
2,6mer-1-308 (KRRITR),135 Ru
3,6mer-1-309 (KKGICK),153 Ru
4,6mer-1-310 (RKRQLK),127 Ru
5,6mer-1-311 (RRGYQK),127 Ru
6,6mer-1-312 (KKSRQK),151 Ru
7,6mer-1-313 (RRWFCK),148 Ru
8,6mer-1-314 (RRRILR),141 Ru
9,6mer-1-315 (RKQQTK),128 Ru
10,6mer-1-316 (RKQIRK),145 Ru
11,6mer-1-317 (KRSFRR),148 Ru
12,6mer-1-318 (KKSRRK),145 Ru
13,6mer-1-319 (KRWVQK),123 Ru
14,6mer-1-320 (KRVQYR),121 Ru
15,6mer-1-321 (RKQVRR),154 Ru
16,6mer-1-322 (KRGVQR),146 Ru
17,6mer-1-323 (RRWLYR),149 Ru
18,6mer-1-324 (RRLQRR),128 Ru
19,6mer-1-325 (RRQIQR),142 Ru
20,6mer-1-326 (RKWIYK),136 Ru
21,6mer-1-327 (KRGITR),139 Ru
22,6mer-1-328 (KRWLQK),151 Ru
23,6mer-1-329 (RKWRQK),123 Ru
24,6mer-1-330 (RKVQRK),148 Ru
25,6mer-1-331 (RKRITR),128 Ru

row,Substance,Binding affinity
1,6mer-1-332 (KKRVQK),122 Ru
2,6mer-1-333 (RKRQSR),135 Ru
3,6mer-1-334 (RRRRLR),154 Ru
4,6mer-1-335 (RRSQRR),148 Ru
5,6mer-1-336 (KRVVTK),154 Ru
6,6mer-1-337 (RKSRRR),144 Ru
7,6mer-1-338 (KKQVLK),127 Ru
8,6mer-1-339 (KKSIQK),147 Ru
9,6mer-1-340 (KRLLCK),142 Ru
10,6mer-1-341 (RKQQQR),128 Ru
11,6mer-1-342 (RKRFCR),131 Ru
12,6mer-1-343 (KKLYTK),135 Ru
13,6mer-1-344 (KKSQCR),125 Ru
14,6mer-1-345 (KKLLCR),147 Ru
15,6mer-1-346 (KKRIYR),123 Ru
16,6mer-1-347 (KKQQSK),126 Ru
17,6mer-1-348 (RKQRLK),142 Ru
18,6mer-1-349 (KRLYSK),123 Ru
19,6mer-1-350 (KKLQTK),153 Ru
20,6mer-1-351 (RRGLRK),141 Ru
21,6mer-1-352 (RKVFRK),142 Ru
22,6mer-1-353 (KRLYLK),126 Ru
23,6mer-1-354 (KKVFLK),153 Ru
24,6mer-1-355 (RKVFYR),148 Ru
25,6mer-1-356 (KRGYSK),153 Ru

row,Substance,Binding affinity
1,6mer-1-357 (KRRQTR),148 Ru
2,6mer-1-358 (KRRYTR),124 Ru
3,6mer-1-359 (KRQFLR),131 Ru
4,6mer-1-360 (KRVFLK),148 Ru
5,6mer-1-361 (RKSVQR),127 Ru
6,6mer-1-362 (KRVVYK),133 Ru
7,6mer-1-363 (KRQIRR),121 Ru
8,6mer-1-364 (RKRQSK),124 Ru
9,6mer-1-365 (KKRICK),142 Ru
10,6mer-1-366 (KRWFCR),133 Ru
11,6mer-1-367 (RKGFSK),154 Ru
12,6mer-1-368 (RRRFSK),145 Ru
13,6mer-1-369 (KKWYRK),144 Ru
14,6mer-1-370 (RKQLYK),142 Ru
15,6mer-1-371 (KRSLTR),153 Ru
16,6mer-1-372 (RKLRSK),145 Ru
17,6mer-1-373 (KRGVLK),149 Ru
18,6mer-1-374 (KKQFQK),148 Ru
19,6mer-1-375 (RRVFYR),154 Ru
20,6mer-1-376 (RRQLRK),121 Ru
21,6mer-1-377 (KRWITR),148 Ru
22,6mer-1-378 (KRSLQK),153 Ru
23,6mer-1-379 (KRRISK),153 Ru
24,6mer-1-380 (KRLQLR),121 Ru
25,6mer-1-381 (RKGFYR),124 Ru

row,Substance,Binding affinity
1,6mer-1-382 (KRQYTR),139 Ru
2,6mer-1-383 (RKRRTK),148 Ru
3,6mer-1-384 (RKVICK),148 Ru
4,6mer-1-385 (KRQVLR),127 Ru
5,6mer-1-386 (RRSYQK),127 Ru
6,6mer-1-387 (KKGRLR),148 Ru
7,6mer-1-388 (RRLLQR),142 Ru
8,6mer-1-389 (RKLFCK),125 Ru
9,6mer-1-390 (RKLQQR),121 Ru
10,6mer-1-391 (RRQRCK),131 Ru
11,6mer-1-392 (RRVQTR),135 Ru
12,6mer-1-393 (KRLYYK),148 Ru
13,6mer-1-394 (KKVRRR),149 Ru
14,6mer-1-395 (KKRQTK),125 Ru
15,6mer-1-396 (KRQIQK),148 Ru
16,6mer-1-397 (KRLILR),125 Ru
17,6mer-1-398 (KKQYYR),137 Ru
18,6mer-1-399 (KRWILR),125 Ru
19,6mer-1-400 (KRWQTK),123 Ru
20,6mer-1-401 (RRLYCR),127 Ru
21,6mer-1-402 (RRRVLR),153 Ru

# Same assay, conditions: SPR, peptides tested at 10 μM; 6mer-1 Top sequence
row,Substance,Binding affinity
1,6mer-1-403 (KRSQTK),153 Ru
2,6mer-1-404 (KKQRQK),137 Ru
3,6mer-1-406 (RKVLLR),153 Ru
4,6mer-1-407 (KRLRTR),153 Ru
5,6mer-1-408 (KRGRSR),147 Ru
6,6mer-1-409 (RRWISR),144 Ru
7,6mer-1-410 (KRVLRK),148 Ru
8,6mer-1-411 (RRQRSR),121 Ru
9,6mer-1-412 (RKSILK),139 Ru
10,6mer-1-413 (RKQFCR),148 Ru
11,6mer-1-414 (KRSFLR),153 Ru
12,6mer-1-415 (RRGVCR),135 Ru
13,6mer-1-416 (RKLIYR),153 Ru
